Assay results reported in the Human Domainome abundance scans (Beltran et al. 2025).
± gives the uncertainty stated by the source.

B1: POU domain, class 2, transcription factor 1, residues 285 to 354; numbered along this chain, P14859 (parent)
chain: LEELEQFAKTFKQRRIKLGFTQGDVGLAMGKLYGNDFSQTTISRFEALNLSFKNMCKLKPLLEKWLNDAE
B2: Serine/threonine-protein kinase A-Raf, residues 21 to 89; numbered along this chain, P10398 (parent)
chain: VKVYLPNKQRTVVTVRDGMSVYDSLDKALKVRGLNQDCCVVYRLIKGRKTVTAWDTAIAPLDGEELIVE

Variants of: B1
Assay: abundance fitness (aPCA) (normalised: wild type 0, dead -1); higher = more abundant; growth selection in yeast, the domain comes from the species named
Conditions: Homo sapiens

Variant	abundance fitness
W65F	0.009 ± 0.18
W65G	-0.555 ± 0.033
W65H	-0.5 ± 0.18
W65I	-0.633 ± 0.44
W65K	-0.961 ± 0.11
W65L	-0.305 ± 0.07
W65M	-0.22 ± 0.073
W65N	-1.05 ± 0.31
W65P	-0.693 ± 0.086
W65Q	-0.594 ± 0.046
W65R	-0.753 ± 0.035
W65S	-0.728 ± 0.062
W65T	-0.294 ± 0.045
W65V	-0.262 ± 0.073
W65Y	-0.275 ± 0.25
L66A	-0.037 ± 0.038
L66C	-0.071 ± 0.068
L66D	-0.854 ± 0.073
L66E	-0.433 ± 0.039
L66F	-0.258 ± 0.057
L66G	-0.411 ± 0.033
L66H	-0.474 ± 0.11
L66I	-0.017 ± 0.046
L66K	-0.476 ± 0.028
L66M	0.01 ± 0.033
L66N	-0.848 ± 0.17

Variant	abundance fitness
L66Q	-0.279 ± 0.056
L66R	-0.667 ± 0.046
L66S	-0.167 ± 0.039
L66T	-0.206 ± 0.052
L66V	-0.003 ± 0.023
L66W	-0.355 ± 0.043
L66Y	-0.11 ± 0.084
N67D	0.024 ± 0.19
N67S	-0.054 ± 0.27
D68A	-0.024 ± 0.023
D68C	-0.106 ± 0.058
D68F	-0.011 ± 0.08
D68G	-0.011 ± 0.019
D68H	-0.012 ± 0.05
D68K	-0.018 ± 0.016
D68M	-0.034 ± 0.022
D68N	0.006 ± 0.024
D68P	-0.419 ± 0.035
D68Q	0.001 ± 0.023
D68R	-0.022 ± 0.021
D68S	0.026 ± 0.029
D68T	-0.048 ± 0.024
D68V	-0.047 ± 0.027
D68W	-0.086 ± 0.028
D68Y	-0.063 ± 0.033
A69C	-0.001 ± 0.022

Variant	abundance fitness
A69E	0.016 ± 0.04
A69H	-0.04 ± 0.028
A69I	-0.027 ± 0.021
A69K	0.004 ± 0.024
A69L	-0.064 ± 0.02
A69M	0.003 ± 0.02
A69N	-0.04 ± 0.023
A69P	-0.112 ± 0.023
A69Q	0.057 ± 0.029
A69R	0.013 ± 0.022
A69S	-0.004 ± 0.018
A69T	-0.012 ± 0.019
A69V	0.014 ± 0.024
A69W	-0.078 ± 0.027
A69Y	-0.038 ± 0.021
E70D	-0.029 ± 0.031
E70G	-0.13 ± 0.26
E70I	-0.048 ± 0.16
E70K	0.011 ± 0.12
E70P	-0.349 ± 0.23
E70R	-0.36 ± 0.32
E70S	0.076 ± 0.22
E70V	-0.083 ± 0.087
E70W	0.071 ± 0.15

Variants of: B2
Assay: as above
Conditions: Homo sapiens

Variant	abundance fitness
K8N	0.132 ± 0.073
Y22N	-0.346 ± 0.15
V21S	-0.858 ± 0.2
R43Q	-0.102 ± 0.076
I45N	-0.435 ± 0.27
V51I	0.102 ± 0.13
T52F	-0.708 ± 0.29
M19F	-0.274 ± 0.1
A28T	-0.206 ± 0.098
W54P	-0.924 ± 0.14
A28S	-0.263 ± 0.067
Q9G	-0.297 ± 0.053
L25I	-0.573 ± 0.17
V40I	-0.09 ± 0.15
N7Q	-0.216 ± 0.071
G47H	-0.907 ± 0.21
I67F	0.252 ± 0.13
R10Y	0.051 ± 0.096
V12I	-0.117 ± 0.36
T11F	-0.08 ± 0.073
N7C	-0.521 ± 0.079
V13W	-0.856 ± 0.095
T56Y	-0.225 ± 0.075

Variant	abundance fitness
R16G	-0.108 ± 0.037
L29V	-0.806 ± 0.095
S20M	-0.832 ± 0.3
V12K	-0.111 ± 0.055
W54Q	-0.916 ± 0.16
L44V	-0.112 ± 0.052
A28I	-0.271 ± 0.29
V13C	-0.206 ± 0.074
V15M	-0.234 ± 0.082
K46Y	-0.41 ± 0.31
Y22V	-0.321 ± 0.057
I45Y	-0.077 ± 0.19
D37V	-0.755 ± 0.13
E64L	-0.01 ± 0.048
T11L	0.052 ± 0.047
A28W	-0.425 ± 0.048
T14A	-0.078 ± 0.058
D62E	-0.128 ± 0.073
D26S	-0.113 ± 0.069
C39A	-0.504 ± 0.1
G18T	-0.405 ± 0.064
L34F	-0.074 ± 0.14
E69A	-0.497 ± 0.081

Variant	abundance fitness
D55G	-0.204 ± 0.029
A59D	-0.08 ± 0.11
S20C	-0.31 ± 0.12
Y42R	-1.15 ± 0.23
V21T	-0.964 ± 0.24
V3A	-0.672 ± 0.086
R32V	0.019 ± 0.055
G33Q	-0.576 ± 0.12
K8D	-0.133 ± 0.1
V31L	0.005 ± 0.046
M19D	-0.09 ± 0.14
R16I	-0.073 ± 0.1
R16K	-0.045 ± 0.052
L29N	-0.607 ± 0.25
Q36P	-0.03 ± 0.067
D23T	-0.087 ± 0.055
N7A	-0.44 ± 0.041
P60V	-0.04 ± 0.051
V13E	-0.857 ± 0.3
G63W	-0.78 ± 0.12
C38N	0.141 ± 0.3
L34C	-0.644 ± 0.13
V1A	-0.684 ± 0.21

Variant	abundance fitness
L25Q	-0.961 ± 0.17
P60C	-0.221 ± 0.2
G47K	-0.768 ± 0.21
I45A	-0.318 ± 0.079
V3G	-0.966 ± 0.18
K27R	-0.046 ± 0.2
E65W	-0.515 ± 0.18
T11G	-0.919 ± 0.12
V41M	-0.711 ± 0.16
I45E	-0.224 ± 0.079
G18R	-0.373 ± 0.035
A28R	-1.06 ± 0.14
C38Y	-0.082 ± 0.12
G33L	-0.942 ± 0.2
Y42S	-0.525 ± 0.093
K30H	-0.83 ± 0.29
K8S	-0.111 ± 0.04
T11W	-0.652 ± 0.09
L44Q	-0.307 ± 0.1
E64H	-0.339 ± 0.18
S20R	-0.352 ± 0.044
G18I	-0.882 ± 0.23
